According to patent US20230025280A1, “PH RESPONSIVE COMPOSITIONS, FORMULATIONS, AND METHODS OF IMAGING A TUMOR” (ONCONANO MEDICINE, INC, priority 2019, published 2023):
“And” between values parts separate entries of the source, which are not always exact repeats. Identical values can stand only once.

Test: Phase 1 (1a/1b) pharmacokinetics: plasma concentrations after single IV dose (validated direct fluorescence reader assay), noncompartmental analysis
Type: in vivo, human
Conditions: Phase 1a
Description: Phase 1 is a single-Principal Investigator, non-randomized, open-label, single-arm, cross-sectional study to evaluate the safety, PK profile, and imaging feasibility of Compound 1 in patients with solid cancers who require surgical excision. The main purpose of this study was to investigate the safety, PK, and feasibility of Compound 1 as an intra-operative optical imaging agent to detect tumors and metastatic lymph nodes in solid cancers. The study was intended to investigate the optimal dose range of Compound 1 for an adequate TBR and CNR of fluorescence obtained intraoperatively at 24 (±8) hours post dosing and with ex vivo specimens using ICG compatible cameras and imaging devices.
Phase 1 enrolled 30 patients with solid cancers (HNSCC, breast cancer, esophageal cancer, or colorectal cancer) who have a biopsy-confirmed diagnosis of respective tumor types and are scheduled to undergo surgical resection of the tumor. The study design included a standard 3+3 design for the dose-escalation portion (Phase 1a; N=18 maximum) followed by a dose-expansion portion (Phase 1b; N=15). All patients received a single I.V. dose of Compound 1, followed by routine surgery approximately 24 hours after infusion of Compound 1.
Phase 1a was a dose-finding study performed in 5 cohorts of 3 patients each. The dose levels evaluated were […], and 1.2 mg/kg, in this sequence. Inter-cohort dose escalation took place after the last patient in the previous cohort completed the Day 10 safety assessment. Safety, PK, and imaging feasibility were evaluated in both the Phase 1a and 1b portions of the study. Patient safety is assessed during the study and for up to 10 days post-dose.
Study design: Single Compound 1 IV dose was administered as a 1-5 minute IV infusion to patients in five cohorts (0.1, 0.3, 0.5, 0.8, and 1.2 mg/kg) with three patients per cohort in Phase 1a and 15 patients at a dose of 1.2 mg/kg in Phase 1b. Patient demographic information including tumor types is presented in Table 4 and 5 for Phase 1a and Table 5 for Phase 1b. Intertek Pharmaceutical Services (San Diego, Calif.) determined Compound 1 plasma concentrations using a validated direct fluorescence reader assay. Pacific BioDevelopment (Davis, Calif.) performed the PK analysis.
Sample collection: Blood samples were collected prior to infusion and at 10 minutes and 0.5, 1, 3, 8, 24, 48, 72, and 240 hours after infusion.
Analysis: Plasma concentration versus time profiles were generated for each patient. Pharmacokinetic parameters were estimated using Phoenix WinNonlin (version 8.0). According to SOP, concentrations reported as BQL were set to 0 except for the 0.5 h sample for subject #ON1102, which was set to LLOQ/2 ([…] value used in parameter calculations) and the 24 and 48 h samples.
If the coefficient of determination for the terminal slope estimation was less than 0.8, T1/2 was not reported (NR). AUC extrapolated to infinity is not reported for any data set because in all cases the % extrapolated AUC was greater than 20% and thus the AUCinf estimate would not be reliable. The concentration at 10 minutes, the first time point measured (C10m), was also reported for each patient.
The area under the plasma concentration versus time curves from dosing to the last time point with a measurable concentration (AUClast) was estimated by the linear trapezoid method. The last three or more time points were used to estimate the elimination rate constant (λz) which was used to estimate the terminal-phase half-life (T1/2) and AUC from zero to infinity (AUCINF) from the following equations: […]

[1] = 0.5 mg/kg single IV, individual subject
[2] = 0.8 mg/kg single IV, individual subject
[3] = 1.2 mg/kg single IV, individual subject

Substance: PEO90-140-b-P(DBA60-150-r-ICG0-3-r-AMA0-3) [Compound 1]
- Cmax [1]: 22700 ng/mL and 17100 ng/mL and 14000 ng/mL
- Tmax [1]: 3.00 h and 0.500 h
- AUC0-24 hr (0.5 mg/kg single IV, mean): 289 µg·h/mL
- AUCall (0.5 mg/kg single IV, mean): 835 µg·h/mL
- AUClast (0.5 mg/kg single IV, mean): 410 µg·h/mL
- C10 m (0.5 mg/kg single IV, mean): 17.3 µg/mL
- Cmax (0.5 mg/kg single IV, mean): 17900 ng/mL
- Tmax (0.5 mg/kg single IV, mean): 2.17 h
- AUC0-24 hr (0.5 mg/kg single IV, median): 314 µg·h/mL
- AUCall (0.5 mg/kg single IV, median): 314 µg·h/mL
- AUClast (0.5 mg/kg single IV, median): 160 µg·h/mL
- C10 m (0.5 mg/kg single IV, median): 16.2 µg/mL
- Cmax (0.5 mg/kg single IV, median): 17100 ng/mL
- Tmax (0.5 mg/kg single IV, median): 3.00 h
- Plasma Conc (0.500 mg/kg, 0.170 hr, individual subject): 22.0 µg/mL and 16.2 µg/mL and 13.6 µg/mL
- Plasma Conc (0.500 mg/kg, 0.170 hr, mean): 17.3 µg/mL
- Plasma Conc (0.500 mg/kg, 0.500 hr, individual subject): 16.7 µg/mL and 15.9 µg/mL and 14.0 µg/mL
- Plasma Conc (0.500 mg/kg, 0.500 hr, mean): 15.5 µg/mL
- Plasma Conc (0.500 mg/kg, 1.00 hr, individual subject): 15.8 µg/mL and 13.8 µg/mL and 12.6 µg/mL
- Plasma Conc (0.500 mg/kg, 1.00 hr, mean): 14.1 µg/mL
- Plasma Conc (0.500 mg/kg, 3.00 hr, individual subject): 22.7 µg/mL and 17.1 µg/mL and 11.9 µg/mL
- Plasma Conc (0.500 mg/kg, 3.00 hr, mean): 17.2 µg/mL
- Plasma Conc (0.500 mg/kg, 8.00 hr, individual subject): 19.3 µg/mL and 14.6 µg/mL and 13.9 µg/mL
- Plasma Conc (0.500 mg/kg, 8.00 hr, mean): 15.9 µg/mL
- Plasma Conc (0.500 mg/kg, 24.0 hr, individual subject): BQL (BQL (<10 μg/mL), set = 0 for PK analysis) (2×) and 12.4 μg/mL
- Plasma Conc (0.500 mg/kg, 24.0 hr, mean): 4.13 µg/mL
- Plasma Conc (0.500 mg/kg, 48.0 hr, individual subject): BQL (BQL (<10 μg/mL), set = 0 for PK analysis) (2×) and 14.0 μg/mL
- Plasma Conc (0.500 mg/kg, 48.0 hr, mean): 4.67 µg/mL
- Plasma Conc (0.500 mg/kg, 72.0 hr, individual subject): BQL (BQL (<10 μg/mL), set = 0 for PK analysis) (2×) and 12.0 μg/mL
- Plasma Conc (0.500 mg/kg, 72.0 hr, mean): 4.00 µg/mL
- Plasma Conc (0.500 mg/kg, 240 hr, individual subject): BQL (BQL (<10 μg/mL), set = 0 for PK analysis)
- Plasma Conc (0.500 mg/kg, 240 hr, mean): 0.00 µg/mL
- Mean AUC0-24h (0.8 mg/kg): 383 µg·h/mL
- Mean C10 (0.8 mg/kg): 19.8 µg/mL
- Mean terminal-phase half-life (0.8 mg/kg): 79.0 h
- AUC0-24 hr [2]: 416 µg·h/mL and 354 µg·h/mL and 380 µg·h/mL
- AUCall [2]: 905 µg·h/mL and 518 µg·h/mL and 1790 µg·h/mL
- AUClast [2]: 756 µg·h/mL and 354 µg·h/mL and 927 µg·h/mL
- C10 m [2]: 21.7 µg/mL and 19.6 µg/mL and 18.2 µg/mL
- Cmax [2]: 23000 ng/mL and 19600 ng/mL and 18200 ng/mL
- T1/2 [2]: 74.5 h and 83.4 h
- Tmax [2]: 1.00 h and 0.170 h
- AUC0-24 hr (0.8 mg/kg single IV, mean): 383 µg·h/mL
- AUCall (0.8 mg/kg single IV, mean): 1070 µg·h/mL
- AUClast (0.8 mg/kg single IV, mean): 679 µg·h/mL
- C10 m (0.8 mg/kg single IV, mean): 19.8 µg/mL
- Cmax (0.8 mg/kg single IV, mean): 20300 ng/mL
- T1/2 (0.8 mg/kg single IV, mean): 79.0 h
- Tmax (0.8 mg/kg single IV, mean): 0.447 h
- AUC0-24 hr (0.8 mg/kg single IV, median): 380 µg·h/mL
- AUCall (0.8 mg/kg single IV, median): 905 µg·h/mL
- AUClast (0.8 mg/kg single IV, median): 756 µg·h/mL
- C10 m (0.8 mg/kg single IV, median): 19.6 µg/mL
- Cmax (0.8 mg/kg single IV, median): 19600 ng/mL
- T1/2 (0.8 mg/kg single IV, median): 79.0 h
- Tmax (0.8 mg/kg single IV, median): 0.170 h
- Plasma Conc (0.800 mg/kg, 0.170 hr, individual subject): 21.7 µg/mL and 19.6 µg/mL and 18.2 µg/mL
- Plasma Conc (0.800 mg/kg, 0.170 hr, mean): 19.8 µg/mL
- Plasma Conc (0.800 mg/kg, 0.500 hr, individual subject): 19.3 µg/mL and 17.6 µg/mL and 17.1 µg/mL
- Plasma Conc (0.800 mg/kg, 0.500 hr, mean): 18.0 µg/mL
- Plasma Conc (0.800 mg/kg, 1.00 hr, individual subject): 23.0 µg/mL and 18.2 µg/mL and 18.0 µg/mL
- Plasma Conc (0.800 mg/kg, 1.00 hr, mean): 19.7 µg/mL
- Plasma Conc (0.800 mg/kg, 3.00 hr, individual subject): 20.0 µg/mL and 14.4 µg/mL and 17.6 µg/mL
- Plasma Conc (0.800 mg/kg, 3.00 hr, mean): 17.3 µg/mL
- Plasma Conc (0.800 mg/kg, 8.00 hr, individual subject): 16.7 µg/mL and 15.1 µg/mL and 16.6 µg/mL
- Plasma Conc (0.800 mg/kg, 8.00 hr, mean): 16.1 µg/mL
- Plasma Conc (0.800 mg/kg, 24.0 hr, individual subject): 16.0 μg/mL and 13.7 μg/mL (2×)
- Plasma Conc (0.800 mg/kg, 24.0 hr, mean): 14.5 µg/mL
- Plasma Conc (0.800 mg/kg, 48.0 hr, individual subject): 12.4 μg/mL and BQL (BQL (<10 μg/mL), set = 0 for PK analysis) and 10.8 μg/mL
- Plasma Conc (0.800 mg/kg, 48.0 hr, mean): 7.73 µg/mL
- Plasma Conc (0.800 mg/kg, 72.0 hr, individual subject): BQL (BQL (<10 μg/mL), set = 0 for PK analysis) (2×) and 10.3 μg/mL
- Plasma Conc (0.800 mg/kg, 72.0 hr, mean): 3.43 µg/mL
- Plasma Conc (0.800 mg/kg, 240 hr, individual subject): BQL (BQL (<10 μg/mL), set = 0 for PK analysis)
- Plasma Conc (0.800 mg/kg, 240 hr, mean): 0.00 µg/mL
- Mean AUC0-24h (1.2 mg/kg): 495 µg·h/mL
- Mean C10 (1.2 mg/kg): 31.7 µg/mL
- Mean terminal-phase half-life (1.2 mg/kg): 36.5 h
- AUC0-24 hr [3]: 348 µg·h/mL and 563 µg·h/mL and 574 µg·h/mL
- AUCall [3]: 348 µg·h/mL and 1160 µg·h/mL and 1020 µg·h/mL
- AUClast [3]: 184 µg·h/mL and 970 µg·h/mL and 891 µg·h/mL
- C10 m [3]: 28.0 µg/mL and 34.1 µg/mL and 33.0 µg/mL
- Cmax [3]: 28000 ng/mL and 34100 ng/mL and 33000 ng/mL
- T1/2 [3]: 32.5 h and 46.5 h and 30.6 h
- Tmax [3]: 0.170 h
